The term EC50 denotes the concentration that produces a half-maximal response.

These results are taken from patent US20110195900A1, “PEPTIDIC PTH RECEPTOR AGONISTS” (FERRING B.V., priority 2008, published 2011).

Non-standard residues stand in square brackets, D forms with d. Residues, ends and D or L forms follow the SMILES beside them. No end group written: not given here. 1Nal = N[C@@H](Cc1cccc2ccccc12)C(=O)O; 2Nal = N[C@@H](Cc1ccc2ccccc2c1)C(=O)O; β3hI = CC[C@H](C)[C@H](N)CC(=O)O; β3hR = N=C(N)NCCC[C@H](N)CC(=O)O; Nle = CCCC[C@H](N)C(=O)O; Aib = CC(C)(N)C(=O)O; βAla = NCCC(=O)O

The target in one assay is T1, human PTH-1 receptor (Homo sapiens, UniProt Q03431).
T1 construct: expressed in transfected cells; host or cells: HEK-293
T1 sequence (Q03431 27-593): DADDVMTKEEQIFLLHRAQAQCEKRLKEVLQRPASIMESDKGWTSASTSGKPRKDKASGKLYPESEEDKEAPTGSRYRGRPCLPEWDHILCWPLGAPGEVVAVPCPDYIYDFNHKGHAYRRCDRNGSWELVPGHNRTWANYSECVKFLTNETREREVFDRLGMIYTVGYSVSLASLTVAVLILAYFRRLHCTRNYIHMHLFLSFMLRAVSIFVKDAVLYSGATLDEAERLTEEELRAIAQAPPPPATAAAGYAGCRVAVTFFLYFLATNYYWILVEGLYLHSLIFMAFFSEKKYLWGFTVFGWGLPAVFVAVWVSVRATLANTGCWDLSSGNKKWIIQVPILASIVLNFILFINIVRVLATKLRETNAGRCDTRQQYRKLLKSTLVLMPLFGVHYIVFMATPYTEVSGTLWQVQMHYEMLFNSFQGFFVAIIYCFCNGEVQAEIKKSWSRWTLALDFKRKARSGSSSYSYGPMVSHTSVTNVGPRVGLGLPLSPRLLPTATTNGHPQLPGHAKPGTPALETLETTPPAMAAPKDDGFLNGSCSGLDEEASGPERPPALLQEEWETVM
In words: Reporter gene assay (CRE-luciferase) for agonist activity in transiently transfected HEK-293 cells. Type of assay: cell-based. The settings on record: Table 4 comparison data; for Selectivity hPTHR-2/hPTHR-1: ratio of EC50 values. The method in brief:
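HEK-293 cells transiently transfected with SV40-driven human PTH-1 receptor and CRE-luciferase reporter, exposed to serial compound dilutions for 4-5 h, then lysed for luciferase readout; efficacy and EC50 by non-linear regression, PTH (1-34) as internal control, n≥3. Selectivity measured in analogous human PTH-2 receptor luciferase reporter assays.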
(A reporter such as luciferase makes a cellular process visible.)

Assay [1] addresses human parathyroid hormone receptor 2 (human, UniProt P49190). In words: cell-based or functional assay.
Assay [2] has as its target human parathyroid hormone receptor 1 (human, UniProt Q03431). Put plainly: cell-based or functional assay.

For the molecule `CCCC[C@H](NC(=O)[C@H](CC(C)C)NC(=O)[C@H](CCC(N)=O)NC(=O)[C@@H](NC(=O)[C@H](CCC(=O)O)NC(=O)[C@H](CO)NC(=O)[C@@H](NC(=O)[C@@H](N)CO)C(C)C)[C@@H](C)CC)C(=O)N[C@@H](Cc1c[nH]cn1)C(=O)N[C@@H](CC(N)=O)C(=O)N[C@@H](CC(C)C)C(=O)NCC(=O)N[C@@H](CCCCN)C(=O)N[C@@H](Cc1c[nH]cn1)C(=O)N[C@@H](CC(C)C)C(=O)N[C@@H](CC(N)=O)C(=O)N[C@@H](CO)C(=O)N[C@H](CC(=O)N[C@@H](CCC(=O)O)C(=O)N[C@@H](CCCNC(=N)N)C(=O)N[C@H](C(=O)N[C@@H](CCC(=O)O)C(=O)N[C@@H](Cc1ccc2ccccc2c1)C(=O)N[C@@H](CC(C)C)C(=O)N[C@@H](CCCNC(=N)N)C(=O)N[C@@H](CCCCN)C(=O)N[C@@H](CCCCN)C(=O)N[C@@H](CC(C)C)C(=O)N[C@@H](CCC(N)=O)C(=O)N[C@@H](CC(=O)O)C(=O)N[C@H](C(=O)N[C@@H](Cc1c[nH]cn1)C(=O)N[C@@H](CC(N)=O)C(=O)N[C@@H](Cc1ccccc1)C(N)=O)C(C)C)C(C)C)[C@@H](C)CC` [SEQ ID NO: 53, [Nle^8, β-hIle^18,2-Nal^23] hPTH (1-34)-NH2] (H-SVSEIQL[Nle]HNLGKHLNS[β3hI]ERVE[2Nal]LRKKLQDVHNF-NH2), the EC50 on human PTH-1 receptor (HEK-293 cells, CRE-luciferase, read-out: hPTHR-1 EC50) came out at 0.25 nM. Moreover, the “Selectivity hPTHR-2/hPTHR-1” value at human PTH-1 receptor is recorded as 170.

Turning to `CCCC[C@H](NC(=O)[C@H](CC(C)C)NC(=O)[C@H](CCC(N)=O)NC(=O)[C@@H](NC(=O)[C@H](CCC(=O)O)NC(=O)[C@H](CO)NC(=O)[C@@H](NC(=O)[C@@H](N)CO)C(C)C)[C@@H](C)CC)C(=O)N[C@@H](Cc1c[nH]cn1)C(=O)N[C@@H](CC(N)=O)C(=O)N[C@@H](CC(C)C)C(=O)NCC(=O)N[C@@H](CCCCN)C(=O)N[C@@H](Cc1c[nH]cn1)C(=O)N[C@@H](CC(C)C)C(=O)N[C@@H](CC(N)=O)C(=O)N[C@@H](CO)C(=O)N[C@@H](CCCNC(=N)N)CC(=O)N[C@@H](CCC(=O)O)C(=O)N[C@@H](CCCNC(=N)N)C(=O)N[C@H](C(=O)N[C@@H](CCC(=O)O)C(=O)N[C@@H](Cc1ccc2ccccc2c1)C(=O)N[C@@H](CC(C)C)C(=O)N[C@@H](CCCNC(=N)N)C(=O)N[C@@H](CCCCN)C(=O)N[C@@H](CCCCN)C(=O)N[C@@H](CC(C)C)C(=O)N[C@@H](CCC(N)=O)C(=O)N[C@@H](CC(=O)O)C(=O)N[C@H](C(=O)N[C@@H](Cc1c[nH]cn1)C(=O)N[C@@H](CC(N)=O)C(=O)N[C@@H](Cc1ccccc1)C(N)=O)C(C)C)C(C)C` [SEQ ID NO: 54, [Nle^8, β-hArg^18,2-Nal^23] hPTH (1-34)-NH2] (H-SVSEIQL[Nle]HNLGKHLNS[β3hR]ERVE[2Nal]LRKKLQDVHNF-NH2), the “Selectivity hPTHR-2/hPTHR-1” value at human PTH-1 receptor is recorded as 147.

B1: [Nle^8, β-hIle^18, 1-Nal^23] hPTH (1-34)-OH (peptide)
peptide: SVSEIQL[Nle]HNLGKHLNS[β3hI]ERVE[1Nal]LRKKLQDVHNF-OH
modifications: N-terminus assumed
SMILES: CCCC[C@H](NC(=O)[C@H](CC(C)C)NC(=O)[C@H](CCC(N)=O)NC(=O)[C@@H](NC(=O)[C@H](CCC(=O)O)NC(=O)[C@H](CO)NC(=O)[C@@H](NC(=O)[C@@H](N)CO)C(C)C)[C@@H](C)CC)C(=O)N[C@@H](Cc1c[nH]cn1)C(=O)N[C@@H](CC(N)=O)C(=O)N[C@@H](CC(C)C)C(=O)NCC(=O)N[C@@H](CCCCN)C(=O)N[C@@H](Cc1c[nH]cn1)C(=O)N[C@@H](CC(C)C)C(=O)N[C@@H](CC(N)=O)C(=O)N[C@@H](CO)C(=O)N[C@H](CC(=O)N[C@@H](CCC(=O)O)C(=O)N[C@@H](CCCNC(=N)N)C(=O)N[C@H](C(=O)N[C@@H](CCC(=O)O)C(=O)N[C@@H](Cc1cccc2ccccc12)C(=O)N[C@@H](CC(C)C)C(=O)N[C@@H](CCCNC(=N)N)C(=O)N[C@@H](CCCCN)C(=O)N[C@@H](CCCCN)C(=O)N[C@@H](CC(C)C)C(=O)N[C@@H](CCC(N)=O)C(=O)N[C@@H](CC(=O)O)C(=O)N[C@H](C(=O)N[C@@H](Cc1c[nH]cn1)C(=O)N[C@@H](CC(N)=O)C(=O)N[C@@H](Cc1ccccc1)C(=O)O)C(C)C)C(C)C)[C@@H](C)CC
For B1, the “hPTHR-2 EC50 (nM), luciferase reporter gene assay” value (“hPTHR-2 EC50 (nM)” for short) in assay [1] is 26 nM. For the same molecule, the “hPTHR-1 EC50 (nM), CRE-luciferase reporter gene assay” value (“hPTHR-1 EC50 (nM)” below) in assay [2] is 0.21 nM.

[Aib]VSEIQL[Nle]HSLGKHLK[βAla][Nle]ERVE[1Nal]LRKLLQRVHEE-NH2: in assay [1], the “hPTHR-2 EC50 (nM)” value stood at 7 nM. For the same molecule, the “hPTHR-1 EC50 (nM)” value in assay [2] came to 0.03 nM.

SVSEIQL[Nle]HNLGKHLNS[β3hI]ERVE[1Nal]LRKLLQDV-OH [[Nle^8, β-hIle^18, 1-Nal^23, Leu^27] hPTH (1-31)-OH]: the “hPTHR-2 EC50 (nM)” value in assay [1] turned out to be 76 nM. In addition, the “hPTHR-1 EC50 (nM)” value in assay [2] turned out to be 0.09 nM.

As for [Aib]VSEIQL[Nle]HELGKHLKS[β3hI]ERVE[1Nal]LRKLLQEVHEK-NH2 [[Aib^1, Nle^8, Glu^10, Lys^16, β-hIle^18, 1-Nal^23, Leu^27, Glu^30, Glu^33, Lys^34] hPTH(1-34)-NH2], in assay [1], the “hPTHR-2 EC50 (nM)” value is 1 nM. Further, the “hPTHR-1 EC50 (nM)” value in assay [2] worked out at 0.04 nM.

On to [Aib]VSEIQL[Nle]HNLGKHLNS[β3hI]ERVE[1Nal]LRKLLQDV-NH2 [[Aib^1, Nle^8, β-hIle^18, 1-Nal^23, Leu^27] hPTH (1-31)-NH2], for which the “hPTHR-2 EC50 (nM)” value in assay [1] stood at 18 nM. For the same molecule, the “hPTHR-1 EC50 (nM)” value in assay [2] amounted to 0.05 nM.

B2: [Nle^8,18, β-Ala^19, 1-Nal^23] hPTH (1-34)-NH2 (peptide)
peptide: SVSEIQL[Nle]HNLGKHLNS[Nle][βAla]RVE[1Nal]LRKKLQDVHNF-NH2
modifications: N-terminus assumed
SMILES: CCCC[C@H](NC(=O)[C@H](CO)NC(=O)[C@H](CC(N)=O)NC(=O)[C@H](CC(C)C)NC(=O)[C@H](Cc1c[nH]cn1)NC(=O)[C@H](CCCCN)NC(=O)CNC(=O)[C@H](CC(C)C)NC(=O)[C@H](CC(N)=O)NC(=O)[C@H](Cc1c[nH]cn1)NC(=O)[C@H](CCCC)NC(=O)[C@H](CC(C)C)NC(=O)[C@H](CCC(N)=O)NC(=O)[C@@H](NC(=O)[C@H](CCC(=O)O)NC(=O)[C@H](CO)NC(=O)[C@@H](NC(=O)[C@@H](N)CO)C(C)C)[C@@H](C)CC)C(=O)NCCC(=O)N[C@@H](CCCNC(=N)N)C(=O)N[C@H](C(=O)N[C@@H](CCC(=O)O)C(=O)N[C@@H](Cc1cccc2ccccc12)C(=O)N[C@@H](CC(C)C)C(=O)N[C@@H](CCCNC(=N)N)C(=O)N[C@@H](CCCCN)C(=O)N[C@@H](CCCCN)C(=O)N[C@@H](CC(C)C)C(=O)N[C@@H](CCC(N)=O)C(=O)N[C@@H](CC(=O)O)C(=O)N[C@H](C(=O)N[C@@H](Cc1c[nH]cn1)C(=O)N[C@@H](CC(N)=O)C(=O)N[C@@H](Cc1ccccc1)C(N)=O)C(C)C)C(C)C
As to B2, the “hPTHR-2 EC50 (nM)” value in assay [1] is 11 nM. In assay [2], the “hPTHR-1 EC50 (nM)” value stood at 0.21 nM.

Turning to SVSEIQL[Nle]HNLGKHLNS[β3hI]ERVE[1Nal]LRKLLQDV-NH2 [[Nle^8, β-hIle^18, 1-Nal^23, Leu^27] hPTH-(1-31)-NH2], the “hPTHR-2 EC50 (nM)” value in assay [1] was 32 nM. Also, the “hPTHR-1 EC50 (nM)” value in assay [2] came out at 0.09 nM.

B3: [Nle^8,18, β-Ala^19, 1-Nal^23, Leu^27] hPTH-(1-34)-NH2 (peptide)
peptide: SVSEIQL[Nle]HNLGKHLNS[Nle][βAla]RVE[1Nal]LRKLLQDVHNF-NH2
modifications: N-terminus assumed
SMILES: CCCC[C@H](NC(=O)[C@H](CO)NC(=O)[C@H](CC(N)=O)NC(=O)[C@H](CC(C)C)NC(=O)[C@H](Cc1c[nH]cn1)NC(=O)[C@H](CCCCN)NC(=O)CNC(=O)[C@H](CC(C)C)NC(=O)[C@H](CC(N)=O)NC(=O)[C@H](Cc1c[nH]cn1)NC(=O)[C@H](CCCC)NC(=O)[C@H](CC(C)C)NC(=O)[C@H](CCC(N)=O)NC(=O)[C@@H](NC(=O)[C@H](CCC(=O)O)NC(=O)[C@H](CO)NC(=O)[C@@H](NC(=O)[C@@H](N)CO)C(C)C)[C@@H](C)CC)C(=O)NCCC(=O)N[C@@H](CCCNC(=N)N)C(=O)N[C@H](C(=O)N[C@@H](CCC(=O)O)C(=O)N[C@@H](Cc1cccc2ccccc12)C(=O)N[C@@H](CC(C)C)C(=O)N[C@@H](CCCNC(=N)N)C(=O)N[C@@H](CCCCN)C(=O)N[C@@H](CC(C)C)C(=O)N[C@@H](CC(C)C)C(=O)N[C@@H](CCC(N)=O)C(=O)N[C@@H](CC(=O)O)C(=O)N[C@H](C(=O)N[C@@H](Cc1c[nH]cn1)C(=O)N[C@@H](CC(N)=O)C(=O)N[C@@H](Cc1ccccc1)C(N)=O)C(C)C)C(C)C
In the case of B3, the “hPTHR-2 EC50 (nM)” value in assay [1] is 18 nM. For the same molecule, the “hPTHR-1 EC50 (nM)” value in assay [2] amounted to 0.26 nM.

As for SVSEIQL[Nle]HNLGKHLNS[β3hI]ERVE[1Nal]LRKLLQDVHNF-OH [[Nle^8, β-hIle^18, 1-Nal^23, Leu^27] hPTH (1-34)-OH], the “hPTHR-2 EC50 (nM)” value in assay [1] was 23 nM. The “hPTHR-1 EC50 (nM)” value in assay [2] is 0.14 nM.
